{"source": "patent US20220267469A1", "about": "(LIPUM, published 2022)", "binders": {"B1": {"name": "S-SL048-11 hIgG4 S228P (antibody, V domains shown)", "VH": "QVQLVQSGAEVKKPGASVKVSCKASGYTFTSYNMHWVRQAPGQGLEWMGVIYPGDGATSYAQKFKGRVTMTRDTSTSTVYMELSSLRSEDTAVYYCARDYYGSSPLGYWGQGTLVTVSS", "VL": "DIQMTQSPSSLSASVGDRVTITCSASPSISYMNWYQQKPGKAPKLLIYATSSLASGVPSRFSGSGSGTDFTLTISSLQPEDFATYYCHQRSSYPTFGQGTKLEIKR", "notes": "also called clone 11; mAb11"}, "B2": {"name": "AS20 hIgG4 S228P (antibody)", "heavy": "not shown", "light": "QIVLTQSPAVMSASPGEKVTMTCSASSSISYMHWYQQKPGTSPKRWIYDTSKLASGVPARFSGSGSGTSYSLTISSMEAEDAATYYCHQRSSYPTFGGGTKLEIKRTVAAPSVFIFPPSDEQLKSGTASVVCLLNNFYPREAKVQWKVDNALQSGNSQESVTEQDSKDSTYSLSSTLTLSKADYEKHKVYACEVTHQGLSSPVTKSFNRGEC", "notes": "also called AS20 IgG4; AS20 (parental clone)"}, "B3": {"name": "Mouse BSSL, recombinant (enzyme)", "chain": "AKLGAVYTEGGFVEGVNKKLSLLGGDSVDIFKGIPFATAKTLENPQRHPGWQGTLKATNFKKRCLQATITQDNTYGQEDCLYLNIWVPQGRKQVSHNLPVMVWIYGGAFLMGSGQGANFLKNYLYDGEEIATRGNVIVVTFNYRVGPLGFLSTGDANLPGNFGLRDQHMAIAWVKRNIAAFGGDPDNITIFGESAGAASVSLQTLSPYNKGLIRRAISQSGMALSPWAIQKNPLFWAKTIAKKVGCPTEDTGKMAACLKITDPRALTLAYKLPVKKQEYPVVHYLAFIPVIDGDFIPDDPINLYNNTADIDYIAGINNMDGHLFATIDVPAVDKTKQTVTEEDFYRLVSGHTVAKGLKGAQATFDIYTESWAQDPSQENMKKTVVAFETDVLFLIPTEIALAQHKAHAKSAKTYSYLFSHPSRMPIYPKWMGADHADDLQYVFGKPFATPLGYRPQDRAVSKAMIAYWTNFARSGDPNMGNSPVPTHWYPYTLENGNYLDITKTITSASMKEHLREKFLKFWAVTFEVLPTVTGDQDTLTPPEDDSEVAPDPPSDDSQVVPVPPTDDSVEAQMPATIGF", "notes": "Bought (R&D Systems, Cat. no 5658-CE); also called mBSSL; murine BSSL"}}, "key": {"[1]": {"target": "T1, Human BSSL (bile salt-stimulated lipase), native (human, UniProt P19835 21-753)", "T1 sequence": "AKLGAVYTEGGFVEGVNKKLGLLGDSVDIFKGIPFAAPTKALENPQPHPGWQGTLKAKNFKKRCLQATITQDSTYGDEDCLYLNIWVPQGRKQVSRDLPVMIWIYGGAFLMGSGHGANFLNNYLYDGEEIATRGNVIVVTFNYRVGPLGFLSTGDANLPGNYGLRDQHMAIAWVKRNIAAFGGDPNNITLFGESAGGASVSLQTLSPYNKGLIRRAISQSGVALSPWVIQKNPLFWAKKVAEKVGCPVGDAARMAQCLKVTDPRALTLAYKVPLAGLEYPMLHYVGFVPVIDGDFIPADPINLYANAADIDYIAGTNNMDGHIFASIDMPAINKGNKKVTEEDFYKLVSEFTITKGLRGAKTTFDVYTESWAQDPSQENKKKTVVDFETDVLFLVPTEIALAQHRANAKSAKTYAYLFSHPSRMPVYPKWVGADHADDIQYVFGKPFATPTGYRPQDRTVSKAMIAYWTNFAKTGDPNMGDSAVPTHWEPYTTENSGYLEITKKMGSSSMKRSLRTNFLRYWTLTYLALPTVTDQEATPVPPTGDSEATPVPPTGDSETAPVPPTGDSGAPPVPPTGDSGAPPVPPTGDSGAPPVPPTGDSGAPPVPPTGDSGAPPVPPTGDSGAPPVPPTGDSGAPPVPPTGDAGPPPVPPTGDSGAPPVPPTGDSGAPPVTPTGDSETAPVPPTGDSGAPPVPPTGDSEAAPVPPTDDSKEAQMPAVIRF", "assay": "cell-based or functional assay"}, "[2]": {"target": "T1, Human BSSL (bile salt-stimulated …)", "assay": "cell-based or functional assay", "remark": "listed apart in the source"}, "Mouse BSSL, recombinant [3]": {"target": "B3", "assay": "SPR steady state, hIgG4 S228P captured by anti-Fab", "summary_of_the_method": "(§1)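 hIgG4 S228P captured on an immobilized anti-Fab surface; five BSSL concentrations injected, 1:5 dilutions from 50 nM (human) or from 500 nM (mouse). Human BSSL: single-cycle kinetics, 1:1 fit. Mouse BSSL: KD from steady-state equilibrium response versus concentration. Regeneration with 10 mM glycine-HCl pH 2.1.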"}, "[4]": {"target": "T1, Human BSSL (bile salt-stimulated …)", "assay": "SPR single cycle kinetics, hIgG4 S228P captured by anti-Fab", "summary_of_the_method": "as §1"}, "Mouse BSSL, recombinant [5]": {"target": "B3", "assay": "SPR steady state, captured by anti-Fab, Absolute Antibody batch", "procedure": "(§2) Kinetic parameters of the hIgG4 S228P clones were determined by SPR using BIACORE® T200 (GE Healthcare). An anti-Fab antibody (GE #28958325) was immobilized on a CM5 S sensor chip by primary amine coupling using NHS-EDC chemistry. The hIgG4 antibodies were captured by the anti-Fab antibody, and subsequently, five different concentrations of hBSSL (1:5 dilutions, 0.08-50 nM) or mBSSL (1:2 dilutions, 50-800 nM) were injected over the surface. The sensor chip surface was regenerated with 10 mM glycine-HCl pH 2.1. For binding to human BSSL, single cycle kinetic data was fitted to a 1:1 binding model and kinetic parameters were retrieved using software BlAevaluation. For mouse BSSL, a steady state analysis was performed by plotting the response level at equilibrium against each concentration, and KD values were retrieved by the BlAevalution software."}, "Biotinylated human BSSL [6]": {"target": "T2, Biotinylated human BSSL (human, UniProt P19835 21-753, Biotinylated on glycosacarides, 30-40 biotin/BSSL)", "T2 construct": "hBSSL biotinylated in house; also called b-hBSSL; human BSSL-biotin", "T2 sequence": "T1 sequence", "assay": "flow cytometry displacement assay; 0.5 ug antibody, 1 ug b-hBSSL", "procedure": "(§3) The 28 BSSL-specific hIgG4 antibodies and the five reference antibodies at different concentrations (ranging from 0.5 μg to 3.0 μg per reaction; see Table 10) were added to b-hBSSL (1 μg per reaction, see Table 2) in round-bottom polystyrene tubes, lx PBS (pH 7.4) was added to a final volume of 20 μl and the antibody/b-hBSSL mixtures were incubated for 30 min. at +4° C. to facilitate binding of antibodies to BSSL. Buffy coat (50 μl) was then added to each antibody/b-hBSSL mixture and incubation continued for another 30 min at +4° C. Thereafter, 2 ml of FACS lysing solution (BD Biosciences) was added and the cells were incubated for 10 min at room temperature in order to lyse erythrocytes and fix the white blood cells. The cells were then centrifuged for 5 min. at 200×g, the resulting pellets were washed by adding 2 ml of FACS buffer (1×PBS supplemented with 1% FCS and 0.1% NaN3) and centrifuged again. Finally, the supernatants were discarded and the cells were resuspended in the last drop of liquid, approximately 50 μl.\n(§4) 5 μl of BV421-labelled anti-human CD14 (BD Biosciences) and 5 μl of BB515-labelled streptavidin (BD Biosciences) was added to each tube and incubated for 30 min, at +4° C., protected from light. Thereafter, cells were washed twice with FACS buffer, resuspended in 500 μl FACS buffer, and run on BD LSRII flow cytometer (BD Biosciences). Finally, data were analyzed using FlowJo software (BD Biosciences)."}, "Biotinylated human BSSL [7]": {"target": "T2, Biotinylated human BSSL", "assay": "flow cytometry displacement assay; 1.0 ug antibody, 1 ug b-hBSSL", "procedure": "as §3, §4"}, "Biotinylated human BSSL [8]": {"target": "T2, Biotinylated human BSSL", "assay": "flow cytometry displacement assay; 1.5 ug antibody, 1 ug b-hBSSL", "summary_of_the_method": "(§5)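 Antibody (0.5–3.0 μg per reaction) preincubated with 1 μg biotinylated human BSSL in PBS pH 7.4, 30 min at 4 °C, then with human buffy coat 30 min at 4 °C. After erythrocyte lysis/fixation, bound BSSL on CD14+ monocytes detected by labelled streptavidin via flow cytometry.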"}, "Biotinylated human BSSL [9]": {"target": "T2, Biotinylated human BSSL", "assay": "flow cytometry displacement assay; 3.0 ug antibody, 1 ug b-hBSSL", "summary_of_the_method": "as §5"}, "[10]": {"target": "T1, Human BSSL (bile salt-stimulated …)", "assay": "SPR single cycle kinetics, captured by anti-Fab, Absolute Antibody batch", "procedure": "as §2"}, "Biotinylated human BSSL [11]": {"target": "T2, Biotinylated human BSSL", "assay": "flow cytometry displacement assay; 2.0 ug antibody, 1 ug b-hBSSL", "procedure": "as §3, §4"}, "AS20 scFv": {"target": "AS20 scFv", "sequence (VH, as listed by the source)": "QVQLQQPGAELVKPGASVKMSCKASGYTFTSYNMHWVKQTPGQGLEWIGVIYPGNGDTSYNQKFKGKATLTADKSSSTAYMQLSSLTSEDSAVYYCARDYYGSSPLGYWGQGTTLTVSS", "assay": "HTRF competition against 5 nM b-hBSSL for 2.5 nM AS20 scFv", "procedure": "In order to study the interaction between AS20 scFv and native mouse BSSL, a competition assay was developed. Detection of binding was enabled through donor molecule terbium-conjugated α-FLAG antibody (Cisbio #611FG2TL), which interacts with the C-terminal located FLAG-tag of the scFv, and acceptor molecule streptavidin-conjugated XL665 (Cisbio #610SAXL), which interacts with the biotin-moieties on human BSSL.\n2.5 nM of AS20 scFv was pre-incubated for 2 hours with the mouse or human orthologue of BSSL, after which 5 nM b-hBSSL and the FRET donor and acceptor molecules were added. The mixture was finally incubated at room temperature for 16 hours and the binding signal (665 nm) and background/noise signal (615 nm) was measured using EnVision (PerkinElmer). The experimental output, Delta R, was calculated for each point using four replicates and two blanks."}}}
{"binder": "B1", "values": [{"measurement": "BSSL hydrolysis of triglycerides, relative value (no antibody = 100%); 0.19 ug antibody", "setting": "[1]", "value": 109, "unit": "%"}, {"measurement": "BSSL hydrolysis of triglycerides, relative value (no antibody = 100%); 0.38 ug antibody", "setting": "[1]", "value": 114, "unit": "%"}, {"measurement": "BSSL hydrolysis of triglycerides, relative value (no antibody = 100%); 0.75 ug antibody", "setting": "[1]", "value": 125, "unit": "%"}, {"measurement": "BSSL hydrolysis of triglycerides, relative value (no antibody = 100%); 1.5 ug antibody", "setting": "[1]", "value": 112, "unit": "%"}, {"measurement": "BSSL hydrolysis of triglycerides, relative value (no antibody = 100%); 3.0 ug antibody", "setting": "[1]", "value": 120, "unit": "%"}, {"measurement": "BSSL hydrolysis of triglycerides, relative value (no antibody = 100%); 6.0 ug antibody", "setting": "[1]", "value": 113, "unit": "%"}, {"measurement": "BSSL hydrolysis of cholesterol esters, relative value (no antibody = 100%); 0.19 ug antibody", "setting": "[2]", "value": 96.2, "unit": "%"}, {"measurement": "BSSL hydrolysis of cholesterol esters, relative value (no antibody = 100%); 0.38 ug antibody", "setting": "[2]", "value": 98.2, "unit": "%"}, {"measurement": "BSSL hydrolysis of cholesterol esters, relative value (no antibody = 100%); 0.75 ug antibody", "setting": "[2]", "value": 92.2, "unit": "%"}, {"measurement": "BSSL hydrolysis of cholesterol esters, relative value (no antibody = 100%); 1.5 ug antibody", "setting": "[2]", "value": 95.2, "unit": "%"}, {"measurement": "BSSL hydrolysis of cholesterol esters, relative value (no antibody = 100%); 3.0 ug antibody", "setting": "[2]", "value": 93.7, "unit": "%"}, {"measurement": "BSSL hydrolysis of cholesterol esters, relative value (no antibody = 100%); 6.0 ug antibody", "setting": "[2]", "value": 90.2, "unit": "%"}, {"measurement": "Kd", "setting": "Mouse BSSL, recombinant [3]", "value": 24, "unit": "nM"}, {"measurement": "Kd", "setting": "[4]", "value": 0.7, "unit": "nM"}, {"measurement": "Kd", "setting": "Mouse BSSL, recombinant [5]", "value": 65, "unit": "nM"}, {"measurement": "percentage reduction of b-hBSSL binding to CD14+ monocytes", "setting": "Biotinylated human BSSL [6]", "value": 1, "unit": "%"}, {"measurement": "percentage reduction of b-hBSSL binding to CD14+ monocytes", "setting": "Biotinylated human BSSL [7]", "value": 9, "unit": "%"}, {"measurement": "percentage reduction of b-hBSSL binding to CD14+ monocytes", "setting": "Biotinylated human BSSL [8]", "value": 60, "unit": "%"}, {"measurement": "percentage reduction of b-hBSSL binding to CD14+ monocytes", "setting": "Biotinylated human BSSL [9]", "value": 68, "unit": "%"}, {"measurement": "Kd", "setting": "[10]", "value": 0.6, "unit": "nM"}]}
{"binder": "B2", "values": [{"measurement": "Kd", "setting": "Mouse BSSL, recombinant [3]", "value": 161, "unit": "nM"}, {"measurement": "Kd", "setting": "[4]", "value": 0.6, "unit": "nM"}, {"measurement": "Kd", "setting": "Mouse BSSL, recombinant [5]", "value": 223, "unit": "nM"}, {"measurement": "percentage reduction of b-hBSSL binding to CD14+ monocytes", "setting": "Biotinylated human BSSL [6]", "value": 19, "unit": "%"}, {"measurement": "percentage reduction of b-hBSSL binding to CD14+ monocytes", "setting": "Biotinylated human BSSL [7]", "value": 21, "unit": "%"}, {"measurement": "percentage reduction of b-hBSSL binding to CD14+ monocytes", "setting": "Biotinylated human BSSL [11]", "value": 58, "unit": "%"}, {"measurement": "Kd", "setting": "[10]", "value": 0.6, "unit": "nM"}]}
{"binder": "B3", "values": [{"measurement": "IC50", "setting": "AS20 scFv", "value": "150 to 200", "unit": "nM"}]}
